# Laboratory results: US20110165063A1 (published 2011)
# T1: recombinant human IL-1α (human, UniProt P01583 113-271)
# T1 sequence: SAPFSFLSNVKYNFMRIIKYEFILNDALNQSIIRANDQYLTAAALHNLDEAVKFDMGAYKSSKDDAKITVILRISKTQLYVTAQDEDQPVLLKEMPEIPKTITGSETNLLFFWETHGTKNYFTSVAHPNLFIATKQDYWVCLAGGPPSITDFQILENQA
# T2: cynomolgus IL-1α (cynomolgus, UniProt P79340 113-271, limits assumed)
# T2 sequence (looked up): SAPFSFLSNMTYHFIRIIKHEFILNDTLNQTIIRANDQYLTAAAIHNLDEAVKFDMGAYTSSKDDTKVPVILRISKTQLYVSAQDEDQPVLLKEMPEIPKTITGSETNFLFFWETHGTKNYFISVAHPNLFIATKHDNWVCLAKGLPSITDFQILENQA
# Assays:
# [1] = molecular target: T1, recombinant human IL-1α; assay: cell-based or functional assay
# [2] = molecular target: T2, cynomolgus IL-1α; assay: cell-based or functional assay
# [3] = molecular target: T1, recombinant human IL-1α; assay: ELISA, antibody captured by anti-human Fc, biotinylated human IL-1α titrated
# Method: To determine if anti-IL-1α antibodies bind to human IL-1α, ELISA plates (Nunc, MaxiSorp, Rochester, N.Y.) were incubated overnight at 4° C. with anti-human Fc antibody diluted in Pierce Coat buffer at 2 μg/ml (Jackson Immunoresearch, West Grove, Pa.). Plates were washed five times in washing buffer (PBS containing 0.05% Tween 20), and blocked for 1 hour at 25° C. with 200 μl per well superblock blocking buffer (Thermo scientific, #37515). Blocking buffer was removed by tapping plates, and […] of each antibody in PBS containing 10% superblock and 0.5% Tween-20 was added to the wells at 100 μl per well and incubated at 25° C. for 1 hour. The wells were washed five times in 1× PBST, and 1 mg/ml biotinylated antigen was titrated at 1:6 serial dilutions (for a range of mg to pg in PBS containing 10% superblock, 0.05% Tween 20). Each dilution of antigen was then added to the plates and incubated for 1 hour at 25° C. The wells were washed five times in 1× PBST and incubated for 1 hour at 25° C. with polyHRP streptavidin (KPL #474-3000, Gaithersburg, Md.). The wells were washed five times in 1× PBST, and 100 μl of ULTRA-TMB ELISA (Pierce, Rockford, Ill.) were added per well. Following color development, the reaction was stopped with 1N HCL and absorbance at 450 nm was measured. The half-maximal effective concentration (EC₅₀) values are shown in Table 9, and the numerical value indicates binding of anti-IL-1α antibodies to human IL-1α.
# [4] = molecular target: T1, recombinant human IL-1α; assay: SPR (BIACORE), antibody captured, IL-1α in solution
# [5] = molecular target: T2, cynomolgus IL-1α; assay: as above
Binder,"IC50 for Antibody (PM), MRC-5 bioassay (IL-1α-stimulated production of IL-8) [1]","IC50 for Antibody (PM), MRC-5 bioassay (IL-1α-stimulated production of IL-8) [2]",EC50 [3],Kd [4],koff [4],kon [4],Kd [5],koff [5],kon [5]
"h3D12.r16 (antibody, V domains shown) VH: EVQLVQSGAEVKKPGASVKVSCKASGYTFKYYGMNWVRQAPGQGLERMGWINTYTGQSTYADDFKGRVTFTLDTSTSTAYMELSSLRSEDTAVYYCARDIYYYGSDFAMDYWGQGTTVTVSS VL: DIQMTQSPSSLSASVGDRVTITCRASQDISNMLNWYQQKPGKAPKLLIYYTSRLKPGVPSRFSGSGSGTDYTFTISSLQPEDIATYFCQQGKTAPYTFGQGTKLEIK",0.0006 nM,0.0008 nM,0.072 nM,0.0308 nM,2.77e-05 s⁻¹,900000 M⁻¹ s⁻¹,0.0149 nM,1.33e-05 s⁻¹,901000 M⁻¹ s⁻¹
"h3D12-362-10/372-15 (antibody, V domains shown) VH: EVQLVQSGAEVKKPGVSVKVSCKASGYTFTTYGMHWVRQAPGQGLEWMGWINTYTGESTYADDFQGRVTFTLDTSTSTAYMELSSLRSEDTAVYFCARGIYYYGSSYAMNYWGQGTTVTVSS VL: DIQMTQSPSSLSASVGDRVTITCRASQDISNMLNWYQQKPGKTPKLLIYYTSRLYPGVPSRFSGSGSGTDYTFTISSLQPEDIATYFCQQGKTLPYAFGQGTKLEIK",0.006 nM,0.0126 nM,0.007 nM,0.115 nM,4.1e-05 s⁻¹,355000 M⁻¹ s⁻¹,0.0578 nM,2.25e-05 s⁻¹,389000 M⁻¹ s⁻¹
"h3D12.8 (antibody, V domains shown, also called humanized 3D12 antibody h3D12.8; VH H3D12VH.1A / VL H3D12VK.1C) VH: EIQLVQSGSELKKPGASVKVSCKASGYTFTNYGMNWVRQAPGQDLERMAWINTYTGESTYADDFKGRFVFSLDTSVSTAYLQISSLKAEDTAVYFCARGIYYYGSSYAMDYWGQGTTVTVSS VL: DIQMTQSPSSLSASVGDRVTITCRASQDISNCLNWYQQKPGKTPKLLIYYTSRLHSGVPSRFSGSGSGTDYTFTISSLQPEDIATYFCQQGKTLPYAFGQGTKLEIK",1.95 nM,–,0.028 nM,1.35 nM,0.00274 s⁻¹,2.04e+06 M⁻¹ s⁻¹,–,–,–
"h3D12.16 (antibody, V domains shown, also called humanized 3D12 antibody h3D12.16; VH H3D12VH.2A / VL H3D12VK.1C) VH: EIQLVQSGAEVKKPGASVKVSCKASGYTFTNYGMNWVRQAPGQDLERMAWINTYTGESTYADDFKGRFTFTLDTSTSTAYMELSSLRSEDTAVYFCARGIYYYGSSYAMDYWGQGTTVTVSS VL: DIQMTQSPSSLSASVGDRVTITCRASQDISNCLNWYQQKPGKTPKLLIYYTSRLHSGVPSRFSGSGSGTDYTFTISSLQPEDIATYFCQQGKTLPYAFGQGTKLEIK",1.36 nM,–,0.01 nM,2.09 nM,0.00253 s⁻¹,1.21e+06 M⁻¹ s⁻¹,–,–,–

# Now from value to binder:
"IC50 for Antibody (PM), MRC-5 bioassay (IL-1α-stimulated production of IL-8) [1]","IC50 for Antibody (PM), MRC-5 bioassay (IL-1α-stimulated production of IL-8) [2]",EC50 [3],Kd [4],koff [4],kon [4],Kd [5],koff [5],kon [5],Binder
1.88 nM,0.0723 nM,–,–,–,–,–,–,–,"murine anti-human IL-1α monoclonal antibody 3D12 (antibody, V domains shown) VH: QIQLVQSGPELKKPGETVKISCKASGYTFRNYGMNWVKQAPGKDLKRMAWINTYTGESTYADDFKGRFAFSLETSASTAYLQINNLKNEDTATYFCARGIYYYGSSYAMDYWGQGTSVTVSS VL: IQMTQTTSSLSASLGDRVTISCRASQDISNCLNWYQQKPDGTVKLLIYYTSRLHSGVPSRFSGSGSGTDYSLTISNLEQEDIATYFCQQGKTLPYAFGGGTKLEINR"
0.0006 nM,0.00098 nM,0.0692 nM,0.0324 nM,3.75e-05 s⁻¹,1.16e+06 M⁻¹ s⁻¹,0.00894 nM,1.2e-05 s⁻¹,1.37e+06 M⁻¹ s⁻¹,"h3D12.r10 (antibody, V domains shown) VH: EIQLVQSGAEVKKPGASVKVSCKASGYTFAHYGMNWVRQAPGQGLEWMGWINTYTGQSTYADDFKGRFTFTLDTSTSTAYMELSSLRSEDTAVYYCARGIYYFGSNYAMDYWGQGTTVTVSS VL: DIQMTQSPSSLSASVGDRVTITCRASQDISNMLNWYQQKPGKTPKLLIYYTSRLRSGVPSRFSGSGSGTDYTFTISSLQPEDIATYFCQQGKKPPYTFGQGTKLEIK"
0.0014 nM,0.0006 nM,0.114 nM,0.0281 nM,2.54e-05 s⁻¹,896000 M⁻¹ s⁻¹,0.0394 nM,3.82e-05 s⁻¹,970000 M⁻¹ s⁻¹,"h3D12.r37 (antibody, V domains shown) VH: EIQLVQSGAEVKKPGASVKVSCKASGYTFKYYGMNWVRQAPGQGLERMGWINTYTGESRYADDFKGRVTFTLDTSTSTAYMELSSLRSEDTAVYYCARDIYYFGSDYAMDYWGQGTTVTVSS VL: DIQMTQSPSSLSASVGDRVTITCRASQDISNRLNWYQQKPGKAPKLLIYYASRLKPGVPSRFSGSGSGTDYTFTISSLQPEDIATYFCQQGNTPPYTFGQGTKLEIK"
